Laboratory results published in patent US20020061546.

What was measured:
[1] = tested on: GFP N-terminal phosphorylation mutant 1MRRDSCLF; details: scale: relative to the endogenous site HKFSV of Aequorea GFP
[2] = tested on: GFP N-terminal phosphorylation mutant 1MSRRDSCF; details: scale: relative to the endogenous site HKFSV of Aequorea GFP
[3] = tested on: GFP phosphorylation mutant 172RRGSV; details: scale: relative to the endogenous site HKFSV of Aequorea GFP
[4] = tested on: GFP N-terminal phosphorylation mutant 1MSKRRDSL; details: scale: relative to the endogenous site HKFSV of Aequorea GFP
[5] = tested on: GFP phosphorylation mutant 25RRFSV; details: scale: relative to the endogenous site HKFSV of Aequorea GFP
[6] = tested on: GFP phosphorylation mutant 214KRDSM
[7] = tested on: GFP N-terminal phosphorylation mutant 1MRKGSCLF; details: scale: relative to the endogenous site HKFSV of Aequorea GFP
[8] = tested on: GFP N-terminal phosphorylation mutant 1MRKGSLLF; details: scale: relative to the endogenous site HKFSV of Aequorea GFP
[9] = tested on: GFP phosphorylation mutant 68RRFSA; details: scale: relative to the endogenous site HKFSV of Aequorea GFP
[10] = tested on: wild type Aequorea green fluorescent protein
[11] = tested on: GFP phosphorylation mutant 155KRKSGI; details: scale: relative to the endogenous site HKFSV of Aequorea GFP
[12] = tested on: GFP N-terminal phosphorylation mutant 1MRRESLLF; details: scale: relative to the endogenous site HKFSV of Aequorea GFP
[13] = scale: relative to the endogenous site HKFSV of Aequorea GFP

## protein kinase A catalytic subunit
[1]
  Relative rates of phosphorylation: 3.7
[2]
  Relative rates of phosphorylation: 2.1
[3]
  Relative rates of phosphorylation: 1.57
[4]
  Relative rates of phosphorylation: 5.5
[5]
  Relative rates of phosphorylation: 1.75
[6]
  kinetics of phosphorylation using gamma-32P-labeled ATP: the site is poorly phosphorylated by protein kinase A
[6]; [13]
  Relative rates of phosphorylation: 1.88
[7]
  Relative rates of phosphorylation: 5.1
[8]
  Relative rates of phosphorylation: 1.6
[9]
  Relative rates of phosphorylation: 0.6
[10]
  phosphorylation in vitro: can be phosphorylated by protein kinase A in vitro with relatively slow kinetics
[10]; [13]
  Relative rates of phosphorylation: 1
[11]
  Relative rates of phosphorylation: 2.5
[12]
  Relative rates of phosphorylation: 3
